Data reported in the supplement of paper PMC10567573.

B1: LOXL2 (parent)
chain: FSPDGPSRFRKAYKPEQPLVRLRG
B2: ZNF263 (parent)
chain: PEASHLRFRRFRFQEAAGPREALS

Variants of: B1
Experiment: protein stability index of a GFP-peptide fusion (GPS, HEK-293T) (PSI 1-6); higher = more stable
Conditions: c terminus: a fixed tail appended
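Note: lentivirally expressed fusions sorted by FACS into six bins by GFP to DsRed ratio, PSI derived from sequencing read proportions per bin multiplied by bin number.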

Variant	protein stability index
FDPDGPSRFRKAYKPEQPLVRLRG [S2D]	3.05
FVPDGPSRFRKAYKPEQPLVRLRG [S2V]	2.07
FYPDGPSRFRKAYKPEQPLVRLRG [S2Y]	2.36
FGPDGPSRFRKAYKPEQPLVRLRG [S2G]	2.11
FTPDGPSRFRKAYKPEQPLVRLRG [S2T]	3.36
FFPDGPSRFRKAYKPEQPLVRLRG [S2F]	2.48
FHPDGPSRFRKAYKPEQPLVRLRG [S2H]	2.68
FLPDGPSRFRKAYKPEQPLVRLRG [S2L]	1.92
FPPDGPSRFRKAYKPEQPLVRLRG [S2P]	1.97
FKPDGPSRFRKAYKPEQPLVRLRG [S2K]	3.23
FNPDGPSRFRKAYKPEQPLVRLRG [S2N]	2.01
FQPDGPSRFRKAYKPEQPLVRLRG [S2Q]	1.22
FWPDGPSRFRKAYKPEQPLVRLRG [S2W]	1.84
FEPDGPSRFRKAYKPEQPLVRLRG [S2E]	3.62
FRPDGPSRFRKAYKPEQPLVRLRG [S2R]	2.96
FMPDGPSRFRKAYKPEQPLVRLRG [S2M]	2.37
FSDDGPSRFRKAYKPEQPLVRLRG [P3D]	2
FSQDGPSRFRKAYKPEQPLVRLRG [P3Q]	2.17
FSLDGPSRFRKAYKPEQPLVRLRG [P3L]	1.96
FSWDGPSRFRKAYKPEQPLVRLRG [P3W]	1.66
FSEDGPSRFRKAYKPEQPLVRLRG [P3E]	1.97
FSYDGPSRFRKAYKPEQPLVRLRG [P3Y]	2.13
FSNDGPSRFRKAYKPEQPLVRLRG [P3N]	1.73
FSKDGPSRFRKAYKPEQPLVRLRG [P3K]	1.71
FSTDGPSRFRKAYKPEQPLVRLRG [P3T]	2.21
FSSDGPSRFRKAYKPEQPLVRLRG [P3S]	2.31

Variant	protein stability index
FSFDGPSRFRKAYKPEQPLVRLRG [P3F]	2.41
FSCDGPSRFRKAYKPEQPLVRLRG [P3C]	1.97
FSVDGPSRFRKAYKPEQPLVRLRG [P3V]	2.6
FSRDGPSRFRKAYKPEQPLVRLRG [P3R]	2.12
FSMDGPSRFRKAYKPEQPLVRLRG [P3M]	2.33
FSHDGPSRFRKAYKPEQPLVRLRG [P3H]	1.9
FSIDGPSRFRKAYKPEQPLVRLRG [P3I]	2.26
FSADGPSRFRKAYKPEQPLVRLRG [P3A]	1.79
FSPDEPSRFRKAYKPEQPLVRLRG [G5E]	2.35
FSPDDPSRFRKAYKPEQPLVRLRG [G5D]	1.62
FSPDAPSRFRKAYKPEQPLVRLRG [G5A]	1.47
FSPDHPSRFRKAYKPEQPLVRLRG [G5H]	2.65
FSPDCPSRFRKAYKPEQPLVRLRG [G5C]	2.03
FSPDIPSRFRKAYKPEQPLVRLRG [G5I]	2.51
FSPDFPSRFRKAYKPEQPLVRLRG [G5F]	2.33
YSPDGPSRFRKAYKPEQPLVRLRG [F1Y]	1.83
HSPDGPSRFRKAYKPEQPLVRLRG [F1H]	3.79
ISPDGPSRFRKAYKPEQPLVRLRG [F1I]	2.95
SSPDGPSRFRKAYKPEQPLVRLRG [F1S]	3.92
TSPDGPSRFRKAYKPEQPLVRLRG [F1T]	3.33
LSPDGPSRFRKAYKPEQPLVRLRG [F1L]	4.19
KSPDGPSRFRKAYKPEQPLVRLRG [F1K]	3.11
MSPDGPSRFRKAYKPEQPLVRLRG [F1M]	2.95
PSPDGPSRFRKAYKPEQPLVRLRG [F1P]	4.03
DSPDGPSRFRKAYKPEQPLVRLRG [F1D]	3.9
CSPDGPSRFRKAYKPEQPLVRLRG [F1C]	3.23

Variant	protein stability index
ESPDGPSRFRKAYKPEQPLVRLRG [F1E]	3.56
ASPDGPSRFRKAYKPEQPLVRLRG [F1A]	2.9
WSPDGPSRFRKAYKPEQPLVRLRG [F1W]	3.12
RSPDGPSRFRKAYKPEQPLVRLRG [F1R]	4.12
QSPDGPSRFRKAYKPEQPLVRLRG [F1Q]	3.85
GSPDGPSRFRKAYKPEQPLVRLRG [F1G]	3.2
VSPDGPSRFRKAYKPEQPLVRLRG [F1V]	3.65
NSPDGPSRFRKAYKPEQPLVRLRG [F1N]	3.98
FSPWGPSRFRKAYKPEQPLVRLRG [D4W]	2.58
FSPQGPSRFRKAYKPEQPLVRLRG [D4Q]	2.57
FSPCGPSRFRKAYKPEQPLVRLRG [D4C]	2.21
FSPGGPSRFRKAYKPEQPLVRLRG [D4G]	1.98
FSPHGPSRFRKAYKPEQPLVRLRG [D4H]	1.41
FSPFGPSRFRKAYKPEQPLVRLRG [D4F]	1.66
FSPNGPSRFRKAYKPEQPLVRLRG [D4N]	1.73
FSPPGPSRFRKAYKPEQPLVRLRG [D4P]	1.07
FSPEGPSRFRKAYKPEQPLVRLRG [D4E]	2.44
FSPSGPSRFRKAYKPEQPLVRLRG [D4S]	1.52
FSPMGPSRFRKAYKPEQPLVRLRG [D4M]	1.71
FSPTGPSRFRKAYKPEQPLVRLRG [D4T]	2.01
FSPVGPSRFRKAYKPEQPLVRLRG [D4V]	2.38
FSPKGPSRFRKAYKPEQPLVRLRG [D4K]	1.97
FSPLGPSRFRKAYKPEQPLVRLRG [D4L]	1.78
FSPIGPSRFRKAYKPEQPLVRLRG [D4I]	1.71
FSPAGPSRFRKAYKPEQPLVRLRG [D4A]	1.62
FSPYGPSRFRKAYKPEQPLVRLRG [D4Y]	2.82

Variants of: B2
Experiment: as above
Conditions: c terminus: a fixed tail appended

Variant	protein stability index
PEASHLRFRRFRFQEAAGPREALN [S24N]	3.28
PEASHLRFRRFRFQEAAGPREALH [S24H]	2.68
PEASHLRFRRFRFQEAAGPREALQ [S24Q]	2.49
PEASHLRFRRFRFQEAAGPREALY [S24Y]	2.37
PEASHLRFRRFRFQEAAGPREALW [S24W]	2.37
PEASHLRFRRFRFQEAAGPREALT [S24T]	2.22
PEASHLRFRRFRFQEAAGPREALK [S24K]	2.76
PEASHLRFRRFRFQEAAGPREALF [S24F]	2.07
PEASHLRFRRFRFQEAAGPREALE [S24E]	2.79
PEASHLRFRRFRFQEAAGPREALG [S24G]	2.3
PEASHLRFRRFRFQEAAGPREALP [S24P]	2.57
PEASHLRFRRFRFQEAAGPREALL [S24L]	2.65
PEASHLRFRRFRFQEAAGPREALM [S24M]	2.19
PEASHLRFRRFRFQEAAGPREALI [S24I]	2.52
PEASHLRFRRFRFQEAAGPREALV [S24V]	2.2
PEASHLRFRRFRFQEAAGPREALR [S24R]	2.69
